In patent publication US20110300138A1 (published 2011):

Assays:
Experiment in all cases: cell-based or functional assay
[1] = biological target: TSHR with Asp43 mutated to Ala, expressed in CHO cells (human) (UniProt P16473)
[2] = biological target: TSHR with Lys183 mutated to Ala expressed in CHO cells (human) (UniProt P16473)
[3] = biological target: wild type TSHR (human TSH receptor) expressed in CHO cells (human) (UniProt P16473)
[4] = biological target: wild type TSHR (human TSH receptor, full length) expressed in CHO cells (human) (UniProt P16473)

## TSH (ligand)
[1]
  % inhibition of TSH stimulation, TSH (2) run at the end of assay, mutated TSHR: 0%
  Cyclic AMP produced (pmol/mL), TSH (2) 3 ng/mL run at the end of assay, mutated TSHR: 60.3 pmol/mL
  Mutated/Wild type (%) of cyclic AMP produced, TSH 0.01 ng/mL: 100%
  Mutated/Wild type (%) of cyclic AMP produced, TSH 0.03 ng/mL: 113%
  Mutated/Wild type (%) of cyclic AMP produced, TSH 0.1 ng/mL: 119%
  Mutated/Wild type (%) of cyclic AMP produced, TSH 0.3 ng/mL: 86%
  Mutated/Wild type (%) of cyclic AMP produced, TSH 1 ng/mL: 86%
  Mutated/wild type (%) of cyclic AMP produced; TSH 3 ng/mL: 88%
  Mutated/wild type (%), TSH (2) 3 ng/mL run at the end of assay: 65%
[2]
  Cyclic AMP produced (pmol/mL), 0.01 ng/mL TSH, Experiment 1: 4.95 pmol/mL
  Cyclic AMP produced (pmol/mL), 0.01 ng/mL TSH, Experiment 2: 3.73 pmol/mL
  Cyclic AMP produced (pmol/mL), 0.03 ng/mL TSH, Experiment 1: 6.94 pmol/mL
  Cyclic AMP produced (pmol/mL), 0.03 ng/mL TSH, Experiment 2: 5.37 pmol/mL
  Cyclic AMP produced (pmol/mL), 0.1 ng/mL TSH, Experiment 1: 13 pmol/mL
  Cyclic AMP produced (pmol/mL), 0.1 ng/mL TSH, Experiment 2: 10.1 pmol/mL
  Cyclic AMP produced (pmol/mL), 0.3 ng/mL TSH, Experiment 1: 35 pmol/mL
  Cyclic AMP produced (pmol/mL), 0.3 ng/mL TSH, Experiment 2: 27.8 pmol/mL
  Cyclic AMP produced (pmol/mL), 1 ng/mL TSH, Experiment 1: 57.2 pmol/mL
  Cyclic AMP produced (pmol/mL), 1 ng/mL TSH, Experiment 2: 55.8 pmol/mL
  Cyclic AMP produced (pmol/mL), 3 ng/mL TSH, Experiment 1: 69.2 pmol/mL
  Cyclic AMP produced (pmol/mL), 3 ng/mL TSH, Experiment 2: 72.2 pmol/mL
  Mutated/Wild type (%) of cyclic AMP produced, 0.01 ng/mL TSH, Experiment 1: 275%
  Mutated/Wild type (%) of cyclic AMP produced, 0.01 ng/mL TSH, Experiment 2: 287%
  Mutated/Wild type (%) of cyclic AMP produced, 0.03 ng/mL TSH, Experiment 1: 177%
  Mutated/Wild type (%) of cyclic AMP produced, 0.03 ng/mL TSH, Experiment 2: 179%
  Mutated/Wild type (%) of cyclic AMP produced, 0.1 ng/mL TSH, Experiment 1: 146%
  Mutated/Wild type (%) of cyclic AMP produced, 0.1 ng/mL TSH, Experiment 2: 151%
  Mutated/Wild type (%) of cyclic AMP produced, 0.3 ng/mL TSH, Experiment 1: 106%
  Mutated/Wild type (%) of cyclic AMP produced, 0.3 ng/mL TSH, Experiment 2: 106%
  Mutated/Wild type (%) of cyclic AMP produced, 1 ng/mL TSH, Experiment 1: 75%
  Mutated/Wild type (%) of cyclic AMP produced, 1 ng/mL TSH, Experiment 2: 82%
  Mutated/Wild type (%) of cyclic AMP produced, 3 ng/mL TSH, Experiment 1: 80%
  Mutated/Wild type (%) of cyclic AMP produced, 3 ng/mL TSH, Experiment 2: 103%
[3]
  % inhibition of TSH stimulation; TSH (2), run at the end of assay: 0%
  % inhibition of TSH stimulation; TSH (2), run at the end of assay; Experiment 1: 8%
  % inhibition of TSH stimulation; TSH (2), run at the end of assay; Experiment 2: 0%
  Cyclic AMP produced (pmol/mL), TSH 0.01 ng/mL: 2.45 pmol/mL
  Cyclic AMP produced (pmol/mL), TSH 0.01 ng/mL, Experiment 1: 1.86 pmol/mL
  Cyclic AMP produced (pmol/mL), TSH 0.01 ng/mL, Experiment 2: 2.49 pmol/mL
  Cyclic AMP produced (pmol/mL), TSH 0.03 ng/mL: 4.78 pmol/mL
  Cyclic AMP produced (pmol/mL), TSH 0.03 ng/mL, Experiment 1: 3.32 pmol/mL
  Cyclic AMP produced (pmol/mL), TSH 0.03 ng/mL, Experiment 2: 5.12 pmol/mL
  Cyclic AMP produced (pmol/mL), TSH 0.1 ng/mL: 16.2 pmol/mL
  Cyclic AMP produced (pmol/mL), TSH 0.1 ng/mL, Experiment 1: 14.6 pmol/mL
  Cyclic AMP produced (pmol/mL), TSH 0.1 ng/mL, Experiment 2: 13.7 pmol/mL
  Cyclic AMP produced (pmol/mL), TSH 0.3 ng/mL: 44.3 pmol/mL
  Cyclic AMP produced (pmol/mL), TSH 0.3 ng/mL, Experiment 1: 48.5 pmol/mL
  Cyclic AMP produced (pmol/mL), TSH 0.3 ng/mL, Experiment 2: 39.9 pmol/mL
  Cyclic AMP produced (pmol/mL), TSH 1 ng/mL: 77.2 pmol/mL
  Cyclic AMP produced (pmol/mL), TSH 1 ng/mL, Experiment 1: 91.2 pmol/mL
  Cyclic AMP produced (pmol/mL), TSH 1 ng/mL, Experiment 2: 74.3 pmol/mL
  Cyclic AMP produced (pmol/mL), TSH 3 ng/mL: 95.5 pmol/mL
  Cyclic AMP produced (pmol/mL), TSH 3 ng/mL, Experiment 1: 119 pmol/mL
  Cyclic AMP produced (pmol/mL), TSH 3 ng/mL, Experiment 2: 88.3 pmol/mL
  Cyclic AMP produced (pmol/mL), wild type TSHR, TSH 0.01 ng/mL: 2.48 pmol/mL
  Cyclic AMP produced (pmol/mL), wild type TSHR, TSH 0.01 ng/mL, Experiment 1: 2.6 pmol/mL
  Cyclic AMP produced (pmol/mL), wild type TSHR, TSH 0.01 ng/mL, Experiment 2: 3.89 pmol/mL
  Cyclic AMP produced (pmol/mL), wild type TSHR, TSH 0.03 ng/mL: 4.62 pmol/mL
  Cyclic AMP produced (pmol/mL), wild type TSHR, TSH 0.03 ng/mL, Experiment 1: 4.27 pmol/mL
  Cyclic AMP produced (pmol/mL), wild type TSHR, TSH 0.03 ng/mL, Experiment 2: 5.52 pmol/mL
  Cyclic AMP produced (pmol/mL), wild type TSHR, TSH 0.1 ng/mL: 17.6 pmol/mL
  Cyclic AMP produced (pmol/mL), wild type TSHR, TSH 0.1 ng/mL, Experiment 1: 10.9 pmol/mL
  Cyclic AMP produced (pmol/mL), wild type TSHR, TSH 0.1 ng/mL, Experiment 2: 13.3 pmol/mL
  Cyclic AMP produced (pmol/mL), wild type TSHR, TSH 0.3 ng/mL: 40.4 pmol/mL
  Cyclic AMP produced (pmol/mL), wild type TSHR, TSH 0.3 ng/mL, Experiment 1: 32.3 pmol/mL
  Cyclic AMP produced (pmol/mL), wild type TSHR, TSH 0.3 ng/mL, Experiment 2: 35.4 pmol/mL
  Cyclic AMP produced (pmol/mL), wild type TSHR, TSH 1 ng/mL: 92.5 pmol/mL
  Cyclic AMP produced (pmol/mL), wild type TSHR, TSH 1 ng/mL, Experiment 1: 85 pmol/mL
  Cyclic AMP produced (pmol/mL), wild type TSHR, TSH 1 ng/mL, Experiment 2: 82.1 pmol/mL
  Cyclic AMP produced (pmol/mL), wild type TSHR, TSH 3 ng/mL: 104 pmol/mL
  Cyclic AMP produced (pmol/mL), wild type TSHR, TSH 3 ng/mL, Experiment 1: 124 pmol/mL
  Cyclic AMP produced (pmol/mL), wild type TSHR, TSH 3 ng/mL, Experiment 2: 91.7 pmol/mL
  Cyclic AMP produced, wild type TSHR, TSH 0.01 ng/mL: 1.41 pmol/mL
  Cyclic AMP produced, wild type TSHR, TSH 0.03 ng/mL: 1.99 pmol/mL
  Cyclic AMP produced, wild type TSHR, TSH 0.1 ng/mL: 5.54 pmol/mL
  Cyclic AMP produced, wild type TSHR, TSH 0.3 ng/mL: 16.3 pmol/mL
  Cyclic AMP produced, wild type TSHR, TSH 1 ng/mL: 44.2 pmol/mL
  Cyclic AMP produced, wild type TSHR, TSH 3 ng/mL: 53.9 pmol/mL
[4]
  % inhibition of TSH stimulation; TSH (2) control: 0%
  % inhibition of TSH stimulation; TSH (2) control; Experiment 1: 0.1%
  % inhibition of TSH stimulation; TSH (2) control; Experiment 2: 0%
  Cyclic AMP produced (pmol/mL), TSH 0.01 ng/mL, Experiment 1: 4.36 pmol/mL
  Cyclic AMP produced (pmol/mL), TSH 0.01 ng/mL, Experiment 2: 2.21 pmol/mL
  Cyclic AMP produced (pmol/mL), TSH 0.01 ng/mL, Experiment 3: 5.19 pmol/mL
  Cyclic AMP produced (pmol/mL), TSH 0.03 ng/mL, Experiment 1: 9.19 pmol/mL
  Cyclic AMP produced (pmol/mL), TSH 0.03 ng/mL, Experiment 2: 3.61 pmol/mL
  Cyclic AMP produced (pmol/mL), TSH 0.03 ng/mL, Experiment 3: 9.82 pmol/mL
  Cyclic AMP produced (pmol/mL), TSH 0.1 ng/mL, Experiment 1: 26.9 pmol/mL
  Cyclic AMP produced (pmol/mL), TSH 0.1 ng/mL, Experiment 2: 7.86 pmol/mL
  Cyclic AMP produced (pmol/mL), TSH 0.1 ng/mL, Experiment 3 (duplicate determination): 25 pmol/mL
  Cyclic AMP produced (pmol/mL), TSH 0.3 ng/mL, Experiment 1: 42 pmol/mL
  Cyclic AMP produced (pmol/mL), TSH 0.3 ng/mL, Experiment 2: 27.1 pmol/mL
  Cyclic AMP produced (pmol/mL), TSH 0.3 ng/mL, Experiment 3: 91.7 pmol/mL
  Cyclic AMP produced (pmol/mL), TSH 1 ng/mL, Experiment 1: 60.1 pmol/mL
  Cyclic AMP produced (pmol/mL), TSH 1 ng/mL, Experiment 2: 54.2 pmol/mL
  Cyclic AMP produced (pmol/mL), TSH 1 ng/mL, Experiment 3: 192 pmol/mL
  Cyclic AMP produced (pmol/mL), TSH 3 ng/mL, Experiment 1: 61.3 pmol/mL
  Cyclic AMP produced (pmol/mL), TSH 3 ng/mL, Experiment 2: 58.1 pmol/mL
  Cyclic AMP produced (pmol/mL), TSH 3 ng/mL, Experiment 3: 226 pmol/mL
  Cyclic AMP produced; TSH 3 ng/mL: 50 pmol/mL
  Cyclic AMP produced; TSH 3 ng/mL; Experiment 1: 67.7 pmol/mL
  Cyclic AMP produced; TSH 3 ng/mL; Experiment 2: 60.7 pmol/mL
